These results are taken from patent US10465005B2, “JAML specific binding agents, antibodies, and uses related thereto” (Emory University, priority 2011, dated 2019).

“Also recorded” adds a separate entry of the source.

One experiment has as its target T1, JAML binding with CAR (Homo sapiens, UniProt Q86YT9).
T1 construct: soluble JAMLD1D2 was truncated and tagged after residue Leucine259; made in house; host or cells: HEK293T (sJAML-His)
T1 sequence (Q86YT9 20-259): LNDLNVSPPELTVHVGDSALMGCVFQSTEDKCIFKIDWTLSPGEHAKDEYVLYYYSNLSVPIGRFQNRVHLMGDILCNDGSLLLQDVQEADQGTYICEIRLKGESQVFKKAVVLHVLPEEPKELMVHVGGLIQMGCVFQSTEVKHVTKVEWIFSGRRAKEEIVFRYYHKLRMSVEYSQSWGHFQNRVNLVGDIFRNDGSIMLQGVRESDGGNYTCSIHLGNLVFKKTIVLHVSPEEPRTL
As to the kind of experiment: CAR binding assay (ELISA, CAR-GST on immobilized sJAML-His). Particulars: CAR-GST 10 μg/ml on immobilized sJAML-His preincubated with antibody; FIG. 1C. Here is the method:
FIG. 1C. CAR binding assay: sJAML-His was coated in Immulon II microtiter microtiter wells overnight, at 4° C. Microtiter wells were washed and blocked and 100 μl antibody solutions were added to wells for 1 hour RT. After washing, CAR-GST was added at 10 μg/ml for 1 hour RT, washed and the assay was developed with HRP conjugated goat anti GST followed by ABTS and OD measurement at 405 nm.
Because certain antibodies recognize the membrane distal domain of JAML, their ability to inhibit binding to CAR was tested. By ELISA, the levels of soluble CAR-GST bound to immobilized sJAML-His preincubated with anti JAML antibodies was measured. […] Thus, these antibodies recognize three different epitopes on JAML and that both DW100 and DW55 bind epitopes close to the JAML binding site. Using a cell aggregation assay, the possibility that DW100 could inhibit the binding of JAML to CAR expressed on the surface of cells was examined. […] This again confirms previously described JAML binding to CAR, as well as the specificity of DW100 (blocking) and DW216 (non-blocking) Abs to JAML.
Background: An ELISA detects its analyte on a solid surface through an enzyme-linked reagent.

A further experiment has as its target T2, CAR on CHO-CAR cells (Homo sapiens, UniProt P78310).
T2 construct: The full length gene of CAR was cloned into pcDNA3.1-Hygromycin; expressed in transfected cells
T2 sequence (P78310 20-365): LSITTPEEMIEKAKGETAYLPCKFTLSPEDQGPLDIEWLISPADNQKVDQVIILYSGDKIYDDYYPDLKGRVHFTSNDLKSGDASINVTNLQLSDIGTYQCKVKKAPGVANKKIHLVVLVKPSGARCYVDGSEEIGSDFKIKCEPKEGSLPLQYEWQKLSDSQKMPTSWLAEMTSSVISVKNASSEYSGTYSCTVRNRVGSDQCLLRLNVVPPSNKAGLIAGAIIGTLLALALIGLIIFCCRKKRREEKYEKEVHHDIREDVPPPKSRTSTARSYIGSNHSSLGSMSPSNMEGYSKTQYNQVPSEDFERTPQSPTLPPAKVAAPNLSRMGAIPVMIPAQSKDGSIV
As to the kind of experiment: Soluble JAML binding to CHO-CAR by flow cytometry. Format: cell-based. The conditions noted are these: sJAML 20 μg/ml, 1 h at 4° C., DW216 detection, FIG. 7A. Here is the method:
CHO-K1 cells stably expressing CAR (CHO-CAR) were incubated with supernatants from PMA activated PLB cells (˜5˜10^7 cell activated in 1 ml, left panel) or recombinant soluble JAML-His (sJAML, 20 μg/ml, right panel) for 1 h at 4° C. JAML binding to CAR on the cell surface was measured by flow cytometry and compared to CHO-CAR cells alone (NoTx). The flow micrograph is representative of 4 independent experiments.
(§1) As it has been established that epithelial CAR is the ligand for JAML on PMN. Whether shed JAML, as well as the recombinant protein could bind to CAR was investigated. To do this, CHO cells stably expressing CAR protein (CHO-CAR) were incubated with either supernatants from PMA activated differentiated PLB-985 (that release high levels of soluble JAML upon activation, (FIG. 2)), or recombinant soluble JAML and stained with DW216 to detect bound JAML. […] The same observation was verified by IF (FIG. 7B). […] The calcium depletion disrupts intercellular junctions of the epithelium and allows for better penetration of soluble JAML.
For orientation: A flow cytometer gives signals particle by particle.

The test system of another experiment is T84 monolayers. As to the kind of experiment: Epithelial barrier recovery after calcium switch (TER, dextran flux). Format: cell-based, human. Particulars: for epithelial barrier recovery (TER) after calcium depletion: 30 μg/ml, 20 m/ml, up to 24 hours, FIG. 9A. Here is the method:
T84 monolayers grown on permeable supports were subjected to transient calcium depletion by preincubation in Ca2+ free buffer (PBS) for 40 min to disassemble tight junctions, followed by switching back to calcium containing medium without (No Tx), or with sJAML or a control recombinant IgSF protein sSIRPa (30 μg/ml). Barrier recovery was measured as transepithelial resistance (TER) at time points as indicated.
FIG. 9B. Flux of fluorescently labeled dextran (3 k) was measured at the 24 h time point for conditions as described in panel A. N=4.
Since CAR plays a role in epithelial barrier, the effect of soluble JAML on epithelial barrier recovery was tested. Transepithelial resistance (TER) recovery experiments and dextran flux assay were performed with T84 cells grown in transwells (FIG. 9) as well as with Caco2 cells. […] As a negative control, a related soluble IgSF molecule SIRPalpha had no effect.

Experiment [1] deals with T3, epithelial CAR on T84 monolayers (Homo sapiens, UniProt P78310).
T3 construct: endogenous in cells; host or cells: T84
T3 sequence (P78310 20-365): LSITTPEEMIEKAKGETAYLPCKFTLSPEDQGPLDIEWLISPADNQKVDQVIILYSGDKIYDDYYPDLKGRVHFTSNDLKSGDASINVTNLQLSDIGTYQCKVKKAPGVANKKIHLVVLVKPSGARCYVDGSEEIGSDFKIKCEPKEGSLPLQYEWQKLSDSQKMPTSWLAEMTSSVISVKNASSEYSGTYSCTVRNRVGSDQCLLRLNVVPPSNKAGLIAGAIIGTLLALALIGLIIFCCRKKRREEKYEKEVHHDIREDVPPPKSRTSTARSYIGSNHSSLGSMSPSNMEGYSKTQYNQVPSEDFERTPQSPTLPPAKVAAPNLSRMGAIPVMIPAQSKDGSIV
As to the kind of experiment: Soluble JAML binding to epithelial CAR, immunofluorescence. Format: cell-based. Particulars: sJAML 20 μg/ml, 1 h at 37° C. after 20 min Ca2+ free buffer; FIG. 7D. Here is the method:
FIG. 7D. T84 monolayers were subjected to transient calcium depletion by preincubation in Ca^2+ free buffer (PBS) for 20 min to increase access to tight junctions, were incubated with sJAML (20 μg/ml) for 1 h at 37° C. […] The scale bar is 20 μm.
as §1

B1: DW100: monoclonal anti-human JAML antibody (IgG1,κ), hybridoma ATCC PTA-13051; VH SEQ ID NO:19, VL SEQ ID NO:22 (antibody, V domains shown)
VH: DVQLVESGAELVRPGASKLSCKALAYTFTDYEMHWVKQTPVHGLEWIGIIHPGSGGTVYNQKFKGKATLTADKSSSTAYMELSSLTSEDSTVYYCTRRRYYGSSYNWYFDVWGAGN
VL: VLTQSPASLAASVGETVTITCRASENIYYSLAWYQQKQGKSPQLLIYNANSLEDGVPSRFSGSGSGTQYSLKINSMQPEDTATYFCEQTYDVPLTFGAGTKLEL
Consider B1, for which the “inhibition of CAR binding to JAML” value with JAML binding with CAR was “inhibit human JAML binding with CAR; also recorded: completely inhibited JAML/CAR interactions; also recorded: completely inhibited binding of JAML to CAR”.

B2: sJAML: recombinant soluble fragment of JAML.D1D2 tagged with 10 His residues at the C-terminus (protein)
chain: LNDLNVSPPELTVHVGDSALMGCVFQSTEDKCIFKIDWTLSPGEHAKDEYVLYYYSNLSVPIGRFQNRVHLMGDILCNDGSLLLQDVQEADQGTYICEIRLKGESQVFKKAVVLHVLPEEPKELMVHVGGLIQMGCVFQSTEVKHVTKVEWIFSGRRAKEEIVFRYYHKLRMSVEYSQSWGHFQNRVNLVGDIFRNDGSIMLQGVRESDGGNYTCSIHLGNLVFKKTIVLHVSPEEPRTL
With B2, in the experiment with CAR on CHO-CAR cells, the “JAML binding to CHO-CAR” value is “JAML binding to CHO-CAR was detected in both cases”. The “epithelial barrier recovery (TER) after calcium depletion” value with T84 monolayers (listed as Soluble JAML) was “decreased epithelial barrier recovery; also recorded: delayed both epithelial barrier recovery and wound restitution”; in the experiment with T84 monolayers (listed as soluble JAML), “significantly impaired the recovery of epithelial barrier”. For the same molecule, the “flux of fluorescently labeled dextran (3 k)” value in the experiment on T84 monolayers (24 h time point, FIG. 9B) is listed as “increased dextran flux”. The “JAML labeling versus CAR staining on T84 monolayers” value in experiment [1] is listed as “highly colocalizes with staining of CAR”.
